Among the data in the Human Domainome abundance scans (Beltran et al. 2025) are abundance fitness values, retold here.

The chains are these.
B1: Gamma-crystallin C, residues 4 to 79; numbered along this chain, P07315 (parent)
chain: ITFYEDRAFQGRSYETTTDCPNLQPYFSRCNSIRVESGCWMLYERPNYQGQQYLLRRGEYPDYQQWMGLSDSIRSC

± gives the uncertainty stated by the source.

Variants of B1 are the subject of the series. The series is described as follows: abundance fitness (aPCA) (normalised: wild type 0, dead -1); higher = more abundant; growth selection in yeast, the domain comes from the species named. The following applies: Homo sapiens.
Turning to R34D, the abundance fitness was -0.382 ± 0.27. For R34S, the abundance fitness is -0.143 ± 0.096. In the case of R34Q, the abundance fitness is -0.041 ± 0.17.

R34M: the abundance fitness was -0.153 ± 0.1. With R34V the figure was -0.039 ± 0.11; with R34L, -0.077 ± 0.076; with R34T, 0.047 ± 0.28. With R34C the figure was -0.107 ± 0.11; with V35Q, -0.854 ± 0.28; with V35M, -0.84 ± 0.19. For V35T, the abundance fitness was -0.081 ± 0.11. On to V35C, for which the abundance fitness was -0.291 ± 0.15. The value for V35L was -0.038 ± 0.085; that for S70D was -0.074 ± 0.12; that for S70R was -0.064 ± 0.067. Regarding S70A, the abundance fitness came to 0.02 ± 0.05. For S70G, the abundance fitness is -0.007 ± 0.055. For the variant S70C, the abundance fitness turned out to be 0.101 ± 0.16.

For S70T, the abundance fitness is -0.072 ± 0.075. With S70L the figure was -0.047 ± 0.049. The value for E5V was -0.107 ± 0.078. With E5Q the figure was -0.076 ± 0.17; with E5L, -0.334 ± 0.16. With E5M, the abundance fitness was determined as 0.097 ± 0.12. On to E5D, for which the abundance fitness is -0.008 ± 0.15.

As for E5K, the abundance fitness was -0.162 ± 0.16.

Take D62Y: the abundance fitness is -0.037 ± 0.12. As for D62S, the abundance fitness is -0.071 ± 0.085. As for D62R, the abundance fitness is -0.034 ± 0.057. D62C: the abundance fitness was -0.177 ± 0.098. In the case of D62P, the abundance fitness was -0.401 ± 0.16. For the variant N22A, the abundance fitness was -0.041 ± 0.088. The value for N22E was -0.1 ± 0.13. In the case of N22K, the abundance fitness was found to be 0.064 ± 0.072.

In the case of N22L, the abundance fitness was determined as 0.036 ± 0.076. Consider N22W, for which the abundance fitness is -0.19 ± 0.094. In the case of Q65F, the abundance fitness is -0.253 ± 0.13. With Q65T the figure was -0.089 ± 0.057.

Take Q65D: the abundance fitness was -0.019 ± 0.085. The value for Q65K was -0.175 ± 0.22; that for W66K was -0.023 ± 0.095; that for W66G was 0.059 ± 0.046. Consider W66A, for which the abundance fitness came to 0.039 ± 0.078. For the variant W66I, the abundance fitness is -0.006 ± 0.11. With Y4R the figure was -0.99 ± 0.16; with Y4E, -0.848 ± 0.27. For the variant Y4V, the abundance fitness was -1.11 ± 0.17. With Y4W the figure was -0.094 ± 0.13; with Y4K, -0.862 ± 0.31. Y4G: the abundance fitness was -0.863 ± 0.14.

Turning to Y4A, the abundance fitness is -0.989 ± 0.15. Regarding E36W, the abundance fitness was found to be 0.003 ± 0.11. For E36S, the abundance fitness was -0.032 ± 0.11. Regarding E36I, the abundance fitness is -0.201 ± 0.23. Regarding E36P, the abundance fitness is 0.018 ± 0.16. On to E36L, for which the abundance fitness is -0.078 ± 0.12. On to T2K, for which the abundance fitness was -0.039 ± 0.12.

Consider T2P, for which the abundance fitness is -0.838 ± 0.17. Regarding T2M, the abundance fitness was -0.116 ± 0.42. In the case of T2V, the abundance fitness was 0.049 ± 0.13. On to T2A, for which the abundance fitness was -0.254 ± 0.098. For T2G, the abundance fitness is -0.329 ± 0.093. Take T2I: the abundance fitness amounted to 0.093 ± 0.25.

L69Y: the abundance fitness is -0.001 ± 0.18. Take L69P: the abundance fitness is -0.07 ± 0.12. With L69V, the abundance fitness worked out at 0.02 ± 0.058. In the case of G68S, the abundance fitness was 0.014 ± 0.052. G68V: the abundance fitness came to 0.007 ± 0.065. With G68A, the abundance fitness was found to be 0.003 ± 0.073. With P21N the figure was 0.112 ± 0.18.

In the case of P21S, the abundance fitness was -0.19 ± 0.083.

For C20W, the abundance fitness is -0.103 ± 0.046. For C20K, the abundance fitness is -0.243 ± 0.32.

On to R12Y, for which the abundance fitness is -0.022 ± 0.15. Regarding R12A, the abundance fitness was -0.058 ± 0.071.

As for R12C, the abundance fitness is -0.063 ± 0.063. In the case of S37E, the abundance fitness is -0.12 ± 0.097.

For S37H, the abundance fitness was -0.142 ± 0.25. The value for S37I was 0.072 ± 0.27.

Turning to S37C, the abundance fitness is -0.091 ± 0.14. With S37R, the abundance fitness is -0.004 ± 0.078.

Take S13Y: the abundance fitness is -0.271 ± 0.2. Take S13H: the abundance fitness was -0.025 ± 0.15. On to L55S, for which the abundance fitness was -0.701 ± 0.15. With L55G, the abundance fitness was -0.571 ± 0.068. In the case of L55C, the abundance fitness was -0.178 ± 0.31.

As for L55Y, the abundance fitness was -0.04 ± 0.13. As to Q52D, the abundance fitness came to 0.102 ± 0.3.

For Q52W, the abundance fitness was -0.141 ± 0.13. Take Q52Y: the abundance fitness is -0.326 ± 0.47. Q52C: the abundance fitness is -0.138 ± 0.21. Turning to Q52A, the abundance fitness is -0.014 ± 0.16. Regarding Q52E, the abundance fitness amounted to 0.014 ± 0.17.

Regarding S28W, the abundance fitness is -0.15 ± 0.11. Regarding S28F, the abundance fitness is 0.044 ± 0.1. Regarding S28H, the abundance fitness was -0.014 ± 0.11. Turning to S28R, the abundance fitness is -0.045 ± 0.072.

Consider L54S, for which the abundance fitness is -0.003 ± 0.088.

As for L54Q, the abundance fitness came out at 0.096 ± 0.26.

With L54I, the abundance fitness was -0.135 ± 0.15. Take L54D: the abundance fitness is -0.149 ± 0.13. L54E: the abundance fitness is -0.004 ± 0.15.

M41P: the abundance fitness was -0.981 ± 0.32. For the variant M41W, the abundance fitness turned out to be 0.039 ± 0.1. For the variant M41C, the abundance fitness is -0.041 ± 0.11. Take M41Q: the abundance fitness was 0.046 ± 0.11. For the variant M41H, the abundance fitness was -0.186 ± 0.18. In the case of M41L, the abundance fitness is -0.056 ± 0.08. For M41V, the abundance fitness is -0.115 ± 0.087. For the variant M67G, the abundance fitness is -0.113 ± 0.06. The value for M67W was 0.044 ± 0.087. For the variant M67P, the abundance fitness was -0.057 ± 0.069. As to M67A, the abundance fitness was -0.03 ± 0.057.

M67K: the abundance fitness was -0.043 ± 0.15.

Consider M67V, for which the abundance fitness was 0.008 ± 0.073. For Y63Q, the abundance fitness is -0.12 ± 0.093. For the variant Y63L, the abundance fitness is -0.097 ± 0.076. Turning to Y63V, the abundance fitness is -0.103 ± 0.054. As for Y63R, the abundance fitness was -0.049 ± 0.05. As for Y63P, the abundance fitness came to 0.094 ± 0.092. As for Y14W, the abundance fitness was 0.112 ± 0.09. Turning to Y14L, the abundance fitness is -0.101 ± 0.072. With Y14T the figure was -0.167 ± 0.16; with Y14I, 0.003 ± 0.098.

Take Y14Q: the abundance fitness is -0.27 ± 0.22. The value for T17P was -0.01 ± 0.28. On to T17W, for which the abundance fitness was -0.092 ± 0.18. Consider T17V, for which the abundance fitness was -0.006 ± 0.099. On to D19E, for which the abundance fitness is -0.063 ± 0.095. As for D19A, the abundance fitness was -0.086 ± 0.09.

With D19W, the abundance fitness was 0.059 ± 0.12. The value for D19P was -0.35 ± 0.16; that for F9S was -0.617 ± 0.18.

F9W: the abundance fitness was -0.028 ± 0.067.

Take A8T: the abundance fitness is -0.016 ± 0.14. A8Y: the abundance fitness is -0.101 ± 0.42. For A8D, the abundance fitness is -0.275 ± 0.24. Take A8N: the abundance fitness is 0.181 ± 0.34. With G50A, the abundance fitness is -0.276 ± 0.17. With G50R the figure was -0.555 ± 0.08; with G50H, -0.857 ± 0.43; with G50E, -0.372 ± 0.074. Consider E59Q, for which the abundance fitness turned out to be 0.009 ± 0.15. E59I: the abundance fitness is -0.789 ± 0.35. For the variant E59W, the abundance fitness was -0.275 ± 0.099. The value for E59P was 0.003 ± 0.15; that for E59F was -0.039 ± 0.11. Take E59K: the abundance fitness was 0 ± 0.11.

For G58N, the abundance fitness is 0.034 ± 0.14. With G58R, the abundance fitness is -0.16 ± 0.05. With G58M, the abundance fitness was -0.223 ± 0.12. On to G58E, for which the abundance fitness is -0.272 ± 0.15. In the case of G58Q, the abundance fitness is -0.166 ± 0.052.

For the variant G58K, the abundance fitness was -0.197 ± 0.17. For the variant S32W, the abundance fitness was -0.889 ± 0.26. On to S32D, for which the abundance fitness was -0.812 ± 0.36. For the variant S32K, the abundance fitness is -0.953 ± 0.17. With I33W the figure was -0.776 ± 0.34. As for I33R, the abundance fitness was -0.883 ± 0.15. With I33E, the abundance fitness was -0.676 ± 0.37. With Q51E the figure was -0.023 ± 0.099; with Q51M, -0.088 ± 0.22. On to Q51D, for which the abundance fitness is -0.056 ± 0.13. On to Q51G, for which the abundance fitness is -0.047 ± 0.09. With Q51W, the abundance fitness was -0.149 ± 0.13.

Consider C76M, for which the abundance fitness was -0.192 ± 0.14.

On to I73Y, for which the abundance fitness was -0.207 ± 0.3.
